Measured values reported in publication doi:10.1101/2022.02.11.480038, “Phosphorylation by casein kinase 2 ensures ER-phagy receptor TEX264 binding to ATG8 proteins” (bioRxiv, 2022).
Where no end group is shown, it is not given here. [ ]: non-standard residue; d: D form. pS = N[C@@H](COP(=O)(O)O)C(=O)O

Legend:
[1] = target: T1, Human GABARAP (residues 1-116) (human, UniProt O95166 1-116); experiment: ITC; Microcal iTC200, 25°C; TEX264 peptides 0.5 mM in the syringe, LC3B or GABARAP in the cell at 10-times lower concentration; single-site binding model; conditions: both partners purified
T1 construct: GABARAP, human, residues 1-116; source: prepared as described previously (Mochida et al., 2020), purified
T1 sequence (O95166 1-116): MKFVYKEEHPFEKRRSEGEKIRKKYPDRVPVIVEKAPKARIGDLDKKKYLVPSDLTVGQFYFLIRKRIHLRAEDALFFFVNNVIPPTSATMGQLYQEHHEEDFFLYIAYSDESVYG

[2] = target: Human LC3B (residues 1-120) (human, UniProt Q9GZQ8 1-120); experiment: as above; conditions: both partners purified

Binder	fold enhancement of affinity over the unphosphorylated peptide [1]	fold enhancement of affinity over the unphosphorylated peptide [2]	fold enhancement of affinity over the unmodified peptide [1]	binding result [2]
[pS]GASGSSFEELDL (source: synthetic peptide, bought: GenScript; passed over Superdex peptide) [TEX264 LIR peptide (residues 266-278) with S266 phosphorylation (p-S266)]	6.5 fold	1.8 fold		
SGS[pS]FEELDL (also called p-Ser272; source: synthetic peptide, bought: GenScript; passed over Superdex peptide) [TEX264 peptide (residues 269-278) with S272 phosphorylation (p-S272)]	23 fold	37 fold		
SGDDFEELDL (peptide, UniProt Q9Y6I9 269-278, looked up, also called 2D-LIR; source: synthetic peptide, bought: GenScript; passed over Superdex peptide) [phosphomimetic TEX264^(S271D, S272D) peptide (2SD-LIR)]			~20 fold	binds
DGDDFEELDL (peptide, UniProt Q9Y6I9 269-278, looked up, also called 3D-LIR; source: synthetic peptide, bought: GenScript; passed over Superdex peptide) [phosphomimetic TEX264^(S269D, S271D, S272D) peptide (3SD-LIR)]			~20 fold	binds
SGEEFEELDL (peptide, UniProt Q9Y6I9 269-278, looked up, also called 2E-LIR; source: synthetic peptide, bought: GenScript; passed over Superdex peptide) [phosphomimetic TEX264^(S271, 272E) peptide (2SE-LIR)]			~20 fold	binds
EGEEFEELDL (peptide, UniProt Q9Y6I9 269-278, looked up, also called 3E-LIR; source: synthetic peptide, bought: GenScript; passed over Superdex peptide) [phosphomimetic TEX264^(S269E, S271E, S272E) peptide (3SE-LIR)]			~20 fold	binds
